Source: the nanobody polyreactivity screen of Harvey et al. (2022)

Assay: yeast display, Sf9 membrane polyspecificity reagent, FACS + sequencing; frameworks hold sequencing errors
How it was run: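 In a synthetic yeast display library (Saccharomyces cerevisiae BJ5465), nanobody expression was induced with galactose for 36–48 hours. FACS gates were set low and high (top ~1%) using anti-HA fluorescence for expression and streptavidin fluorescence for binding of the Sf9 membrane reagent. Each polyreactivity label is drawn from the gate of origin.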

Row | Sequence | polyreactivity (PSR sort gate)
1 | QVQLVESGGGLVQAGGSLRLSCASSGSISYYAMGWYRQAPGKERELVAAISSGGSTYYADSVKGRFTISRDNAKNTVYLQMNSLKPEDTAVYYCAVRYIIRGYATRYYYWGQGTQVTVSS | high polyreactivity
2 | QVQLVESGGGLVQAGGSLRLSCASSGSTFAQNTMGWYRQAPRKERELVATISDGGGSTYYADSVKGRFTISRDNAKNTVYLQMNSLKPEDTAVYYCNTDRFWPSDYWGQGTQVTVSS | low polyreactivity
3 | QVQLVESGGGLVQAGGSLRLSCASSGSTFFLNAMGWYRQAPGKEREFVAAISYTSTSTYYADSVKGRFTISRDNAKNTVYLQMNSLKPEDTAVYYCAVDAAGWYYTVETGDYAEDYWGQGTQVTVSS | low polyreactivity
4 | QVQLVESGGGLVQAGGSLRLSCASSGSTFPRNAMGWYRQAPGKERELVAAITRSGANTHYADSVKGRFTISRDNAKNTVYLQMNSLKPEDTAVYYCAARSFTAYLGYYWGQGTQVTVSS | high polyreactivity
5 | QVQLVESGGGLVQAGGSLRLSCASSGSTFRYYAMGWYRPPPGKEREWVAVITSGGSTYYADSVKGRFTISRDNAKNTVSLQMNSLKPEDTAVDYCAAVYAFYVDFDYWGQGTQVTVSS | low polyreactivity
6 | QVQLVESGGGLVQAGGSLRLSCASSGSTFSPNAMGWYRQAPGKERELVAAITYRGANTYYADSVKGRFTISRDNAKNTVYLQMNSLKPEDTAVYYCAAEYAYHHVGFGYWGQGTQVTVSS | low polyreactivity
7 | QVQLVESGGGLVQAGGSLRLSCASSGSTIYPNAMGWYRQAPGKERELVARISRTGGSTYADSVKGRFTISRDNAKNTVYLQMNSLKPEDTAVYYCARSYASFSWLRTKEPYEYWGQGTQVTVSS | low polyreactivity
8 | QVQLVESGGGLVQAGGSLRLSCASSGSTIYYNAMGWYRQAPGKERELVAAISNAGSTYYADSVKGRFTISRDNAENTVYLQMNSLKPEDTAVYYCAKRFRGITYSYYYWGQGTQVTVSS | high polyreactivity
9 | QVQLVESGGGLVQAGGSLRLSCASSGSTLRSYAMGWYRQAPGKERELVAAIDWDGGRTYYADSVKGRFTISRDNAKNTVYIQMNSLKPEDTAVYYCNTSAGWSNGKDEGDFYSGFDYWVQGTQVTVSS | low polyreactivity
10 | QVQLVESGGGLVQAGGSLRLSCASSGYIFAGNAMGWYRQAPGKERELVAVITRGGRTYYADSVKGRFTISRDNAKNTVYLQMNSLKPEDTAVYYCAARYPYRGWGQGTQVTVSS | high polyreactivity
11 | QVQLVESGGGLVQAGGSLRLSCASSGYTFTIYAMGWYRQAPGKERELVAAITGRGGRTNYADSVKGRFTISRDNAKNTVYLQIYRLIPVDTAVYYCNAVTKVVYHGPYGYDYWGQGTQVTVSS | high polyreactivity
12 | QVQLVESGGGLVQAGGSLRLSCATSGGTLVANAMGWSSQPPGKESEFVAVITLTAGSTSYADSVKGRLTISRDNAKNTVYLQMNSLKPEDTAVYYCNVDVYNVYNSYPYYYWGQGTQVTVSS | low polyreactivity
13 | QVQLVESGGGLVQAGGSLRLSCATSGSTSYPYAMGWYRQAPGKERELVAAISTSGSTTYYADSVKVRFTLSRDNAKKTVYLQMNSLKPEDTAVYYCAKGVNFSQYPFSAYGDGGRYDYWGQGTQVTVSS | low polyreactivity
14 | QVQLVESGGGLVQAGGSLRLSCDASGFIFYEYAMGWSRQAPGKEREFVAAISRSGTRTYYADSVKGRFTISRDNAKNTVYLQMNSLKPEDTAVYYCAAAYYGYARWRGPRKMDYWGQGTQVTVSS | high polyreactivity
15 | QVQLVESGGGLVQAGGSLRLSCDASGFTFDDYAMGWYRQAHGNEMELVAAISSSRDSTYNADSVKGRFTISRDYEKNTVYLQINSLKPQDTAVYYCAAEYDREEYSGYDYWGEGTQVTVSS | low polyreactivity
16 | QVQLVESGGGLVQAGGSLRLSCDASGFTFHPYTMGWYRQAPGKERELVASISWGGGSTYYADSVKGRFTISRDNAKNTVYLQMKSLNPEDTAVYYCAKDITYIYYYWGQGSQVTVSS | low polyreactivity

Row | Sequence | polyreactivity (PSR sort gate)
17 | QVQLVESGGGLVQAGGSLRLSCDASGFTFSAYAMGWYRQAPGKERELVAAISTRGGSTRYADSVKGRFTISRDNAKNTVYLQMNSLKPEDTAVYYCADDTRSFYRYDYWGQGTQVTVSS | high polyreactivity
18 | QVQLVESGGGLVQAGGSLRLSCDASGFTFVDYTMGWYRQAPGKERELVAAISRRGGSTYYADSVKGRFTISRANSKNTVYLQLNSLQQADTAVYYCNAYRRNYYYYQRHGYWGQCTQVTVSS | high polyreactivity
19 | QVQLVESGGGLVQAGGSLRLSCDASGFTIYHYAIGCYRQATGKERELVDANSRSGGSTYYADSVKGRFTISRDNAQNTFYLQMNSLKPEDTAVYYCAKVLRAKNSFDYWGQGTQVTVSS | high polyreactivity
20 | QVQLVESGGGLVQAGGSLRLSCDASGNTFGSYAMGWYGQAPGKEREVVASISGGGSTNYADSVKGRFTISRDNATNTVYLQMNSLKPEDTAVYDCAPRYYYRYYWRQGTQVTVSS | low polyreactivity
21 | QVQLVESGGGLVQAGGSLRLSCDASGRIFASNAMGWYRQAPGKERELVATIRRSGGSTYYADSVKGRFTISRDNAKNTVYLQMNSLKPEDTAVYYCNARMYGGYGWIYDYWRQGTQVTVSS | high polyreactivity
22 | QVQLVESGGGLVQAGGSLRLSCDASGRIFRKNAMGWYRQAPGKERELVAAISGGGGSTYYADSVKGRFTISRDNAKNTVYLQMNSLKPEDTADYYCNAPILPGYWGQGTQVTVSS | high polyreactivity
23 | QVQLVESGGGLVQAGGSLRLSCDASGRIFRYYAMGWYRQAPGKERELVAAISSDGSTDYADSVKGRFTISRDNAKNTVYLQMNSLKPEDTAVYYCAASVVSYGHDYWGQGTQVTVSS | low polyreactivity
24 | QVQLVESGGGLVQAGGSLRLSCDASGRIFSRYAIGWYRQAPGKERELVAAITQSGTSTYYADSVKGRFTISRDNAKNTVYLQMNSLNPEDTAVYYCNAYRQYRYDYWGQGTQVTVSS | low polyreactivity
25 | QVQLVESGGGLVQAGGSLRLSCDASGRIFSVYAMGWYRQEPGKEREFVSAISRGGSTNYADSVNGRFTISRDNAKYTVYLQKNSLKPEDTAVYYWGASSLPNYYYRHYYLYEYWGQGTQVTVSS | low polyreactivity
26 | QVQLVESGGGLVQAGGSLRLSCDASGRIIAFYVMGWYRQAPGKERELVAAITSGGNTNYADSVKGRFTISRDNAKNTVYLQMNSLKPEDTAVYYCAVPVLTYVSDYYWGQGTQVTVSS | low polyreactivity
27 | QVQLVESGGGLVQAGGSLRLSCDASGRTFAYYAMGWYRQAPGKERELVAAISNGGSTYYADSVKGRFTISRDNAKNTVYLQMNRLKPEDTSVYYCNAYYSDLYDYWGQGTQVTVSS | low polyreactivity
28 | QVQLVESGGGLVQAGGSLRLSCDASGRTFGHKAMAWYRQAPGKEREFVAAITYSCVRTFYADSVKGRFTISRDNAKNTVYLQMNSLKQEDTAVYYCATDWRRDYDFWGQGTQVTVSS | low polyreactivity
29 | QVQLVESGGGLVQAGGSLRLSCDASGRTFRFNDGGWYRQAPVKERELVAAITYRGGSTYYPDSVKGRFTISRDNAKNTVYLQMNSLKPDDTAVYYCAADYFWSRTQEFDYWGQGSQVTVSS | high polyreactivity
30 | QVQLVESGGGLVQAGGSLRLSCDASGRTFRYYAMGWYRQAPGKEREMVAAITRSGGSTYYADSVKGRFTISRDNAKNTVYLQMNSLKAVDTAVYYCAESRFYSYGIDYDYWGQGTQVTVSS | high polyreactivity
31 | QVQLVESGGGLVQAGGSLRLSCDASGSIFDPYAMGWYRQAPGKERELVAGISFSGGRTYYADSVKGRFTISRDNAKNTVYLQMNSLKPEDTAVYYCKKLLTQGAYPYYYWGQGTQVTVSS | high polyreactivity
32 | QVQLVESGGGLVQAGGSLRLSCDASGSIFIANAMGWYRQAPGKEREFVAAINWSRGSTYYADSVKGRFTISRDNAKNTVYLQMNSLKPEDTAVYYCNAASLKFTSPVRFGYWGQGTQVTVSS | high polyreactivity
